B1: unnamed (protein)
chain: MNFPRASRLMQAAVLGGLMAVSAAATAQTNPYARGPNPTAASLEASAGPFTVRSFTVSRPSGYGAGTVYYPTNAGGTVGAIAIVPGYTARQSSIKWWGPRLASHGFVVITIDTNSTLDQPSSRSSQQMAALRQVASLNGTSSSPIYGKVDTARMGVMGWSMGGGGSLISAANNPSLKAAAPQAPWDSSTNFSSVTVPTLIFACENDSIAPVNSSALPIYDSMSRNAKQFLEINGGSASCANSGNSNQALIGKKGVAWMKRFMDNDTRYSTFACENPNSTRVSDFRTANCS
B2: unnamed (protein)
chain: NPYARGPNPTAASLEASAGPFTVRSFTVSRPSGYGAGTVYYPTNAGGTVGAIAIVPGYTARQSSIKWWGPRLASHGFVVITIDTNSTLDQPSSRSSQQMAALRQVASLNGTSSSPIYGKVDTARMGVMGWSMGGGGSLISAANNPSLKAAAPQAPWDSSTNFSSVTVPTLIFACENDSIAPVNSSALPIYDSMSRNAKQFLEINGGSHFCANSGNSNQALIGKKGVAWMKRFMDNDTRYSTFACENPNSTRVSDFRTANCS
B3: unnamed (protein)
chain: NPYARGPNPTAASLEASAGPFTVRSFTVSRPSGYGAGTVYYPTNAGGTVGAIAIVPGYTARQSSIKWWGPRLASHGFVVITIDTNSTLDQPSSRSSQQMAALRQVASLNGTSSSPIYGKVDTARMGVMGWSMGGGGSLISAANNPSLKAAAPQAPWDSSTNFSSVTVPTLIFACENDSAAPVNSSALPIYDSMSRNAKQFLEINGGSHSCANSGNSNQALIGKKGVAWMKRFMDNDTRYSTFACENPNSTRVSDFRTANCS
B4: unnamed (protein)
chain: NPYARGPNPTAASLEASAGPFTVRSFTVSRPSGYGAGTVYYPTNAGGTVGAIAIVPGYTARQSSIKWWGPRLASHGFVVITIDTNSTLDQPSSRSSQQMAALRQVASLNGTSSSPIYGKVDTARMGVMGWSMGGGGSLISAANNPSLKAAAPQAPWDSSTNFSSVTVPTLIFACENASIAPVNSSALPIYDSMSRNAKQFLEINGGSHSCANSGNSNQALIGKKGVAWMKRFMDNDTRYSTFACENPNSTRVSDFRTANCS
B5: unnamed (protein)
chain: NPYARGPNPTAASLEASAGPFTVRSFTVSRPSGYGAGTVYYPTNAGGTVGAIAIVPGYTARQSSIKWWGPRLASHGFVVITIDTNSTLDQPSSRSSQQMAALRQVASLNGTSSSPIYGKVDTARMGVMGHSMGGGGSLISAANNPSLKAAAPQAPWDSSTNFSSVTVPTLIFACENDSIAPVNSSALPIYDSMSRNAKQFLEINGGSHSCANSGNSNQALIGKKGVAWMKRFMDNDTRYSTFACENPNSTRVSDFRTANCS
B6: unnamed (protein)
chain: NPYARGPNPTAASLEASAGPFTVRSFTVSRPSGYGAGTVYYPTNAGGTVGAIAIVPGYTARQSSIKWWGPRLASHGFVVITIDTNSTLDQPSSASSQQMAALRQVASLNGTSSSPIYGKVDTARMGVMGWSMGGGGSLISAANNPSLKAAAPQAPWDSSTNFSSVTVPTLIFACENDSIAPVNSSALPIYDSMSRNAKQFLEINGGSHSCANSGNSNQALIGKKGVAWMKRFMDNDTRYSTFACENPNSTRVSDFRTANCS
B7: unnamed (protein)
chain: NPYARGPNPTAASLEASAGPFTVRSFTVSRPSGYGAGTVYYPTNAGGTVGAIAIVPGYTARQSSIKWWGPRLASHGFVVITIDTNSTLDQPSSRSSQQMAALRQVASLNGTSSSPIYGKVDTARMGVMGWSAGGGGSLISAANNPSLKAAAPQAPWDSSTNFSSVTVPTLIFACENDSIAPVNSSALPIYDSMSRNAKQFLEINGGSHSCANSGNSNQALIGKKGVAWMKRFMDNDTRYSTFACENPNSTRVSDFRTANCS
B8: unnamed (protein)
chain: NPYARGPNPTAASLEASAGPFTVRSFTVSRPSGYGAGTVYYPTNAGGTVGAIAIVPGYTARQSSIKWWGPRLASHGFVVITIDTNSTLDQPSSRSSQQMAALRQVASLNGTSSSPIYGKVDTARMGVMGWSMGGGGSLISAANNPSLKAAAPLAPWDSSTNFSSVTVPTLIFACENDSIAPVNSSALPIYDSMSRNAKQFLEINGGSHSCANSGNSNQALIGKKGVAWMKRFMDNDTRYSTFACENPNSTRVSDFRTANCS
B9: unnamed (protein)
chain: NPYARGPNPTAASLEASAGPFTVRSFTVSRPSGYGAGTVYYPTNAGGTVGAIAIVPGYTARQSSIKWWGPRLASHGFVVITIDTNSTLDQPSSRSSQQMAALRQVASLNGTSSSPIYGKVDTARMGVMGWSMGGGGSLISAANNPSLKAAAPQAPWDSSTNFSSVTVPTLIFAAENDSIAPVNSSALPIYDSMSRNAKQFLEINGGSHSCANSGNSNQALIGKKGVAWMKRFMDNDTRYSTFACENPNSTRVSDFRTANCS
B10: unnamed (protein)
chain: NPYARGPNPTAASLEASAGPFTVRSFTVSRPSGYGAGTVYYPTNAGGTVGAIAIVPGYTARQSSIKWWGPRLASHGFVVITIDTNSTLDQPSSRSSQQMAALRQVASLNGTSSSPIYGKVDTARMGVMGWSMGGGGSLISAANNPSLKAAAPQAPWDSSTNFSSVTVPTLIFACENDSIAPVNSHALPIYDSMSRNAKQFLEINGGSHSCANSGNSNQALIGKKGVAWMKRFMDNDTRYSTFACENPNSTRVSDFRTANCS
B11: unnamed (protein)
chain: NPYARGPNPTAASLEASAGPFTVRSFTVSRPSGYGAGTVYYPTNAGGTVGAIAIVPGYTARQSSIKWWGPRLASHGFVVITIDTNSTLDQPSSRSSQQMAALRQVASLNGTSSSPIYGKVDTARMGVMGWAMGGGGSLISAANNPSLKAAAPQAPWDSSTNFSSVTVPTLIFACENDSIAPVNSSALPIYDSMSRNAKQFLEINGGSHSCANSGNSNQALIGKKGVAWMKRFMDNDTRYSTFACENPNSTRVSDFRTANCS
B12: unnamed (protein)
chain: NPYARGPNPTAASLEASAGPFTVRSFTVSRPSGYGAGTVYYPTNAGGTVGAIAIVPGYTARQSSIKWWGPRLASHGFVVITIDTNSTLDQPSSRSSQQMAALRQVASLNGTSSSPIYGKVDTARMGVMGASMGGGGSLISAANNPSLKAAAPQAPWDSSTNFSSVTVPTLIFACENDSIAPVNSSALPIYDSMSRNAKQFLEINGGSHSCANSGNSNQALIGKKGVAWMKRFMDNDTRYSTFACENPNSTRVSDFRTANCS

What was measured:
BHET = assay: Proxy for plastic degradation [Released monomer concentration (HPLC/LC-MS) (MHET+TPA)]; conditions: pH 7.5
PET [1] = assay: Proxy for plastic degradation [Released monomer concentration (HPLC/LC-MS) (TPA)]; conditions: pH 9; part of the chain shown
PET [2] = assay: Proxy for plastic degradation [Released monomer concentration (HPLC/LC-MS) (MHET)]; conditions: pH 9

Row | Protein | Proxy for plastic degradation (BHET) [µM] | other results
1 | B1 | 0.03 | 
2 | B2 |  | Proxy for plastic degradation (PET [1]): 3.5 nM; Proxy for plastic degradation (PET [2]; part of the chain shown): 4 nM; Proxy for plastic degradation (BHET; part of the chain shown): 1.6 µM
3 | B3 | 0.54 | 
4 | B4 | 0.03 | 
5 | B5 |  | Proxy for plastic degradation (PET [1]): 20 nM; Proxy for plastic degradation (PET [2]; part of the chain shown): 20 nM; Proxy for plastic degradation (BHET; part of the chain shown): 1.94 µM
6 | B6 | 0.6 | Proxy for plastic degradation (PET [2]): 1 nM
7 | B7 | 0.57 | 
8 | B8 | 1.26 | Proxy for plastic degradation (PET [2]): 8 nM
9 | B9 | 0.26 | 
10 | B10 | 0.45 | 
11 | B11 | 0.06 | 
12 | B12 | 0.23 | 

Reference: the PETadex activity labels (doi:10.1002/cbic.201800097)
